According to US20100061996:

Target: pro-uPA (pro-urokinase-type plasminogen activator, single-chain zymogen form of uPA) (UniProt P00749)

soluble His-tagged hepsin comprising the entire extracellular domain of human hepsin (Arg45-Leu417), sequence (chain, as listed by the source): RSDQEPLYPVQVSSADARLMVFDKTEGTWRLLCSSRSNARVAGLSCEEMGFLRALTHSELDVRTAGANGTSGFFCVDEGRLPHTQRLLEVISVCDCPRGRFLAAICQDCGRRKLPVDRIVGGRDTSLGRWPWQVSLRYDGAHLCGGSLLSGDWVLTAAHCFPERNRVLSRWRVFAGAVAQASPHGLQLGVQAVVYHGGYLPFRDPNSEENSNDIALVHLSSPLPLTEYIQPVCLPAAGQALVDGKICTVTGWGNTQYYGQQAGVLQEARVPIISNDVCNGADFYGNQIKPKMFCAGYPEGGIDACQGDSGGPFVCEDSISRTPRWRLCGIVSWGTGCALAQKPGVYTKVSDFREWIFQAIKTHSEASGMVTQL

soluble His-tagged hepsin comprising the entire extracellular domain of human hepsin (Arg45-Leu417)
cleavage of pro-uPA (SDS-PAGE, 1.5 uM pro-uPA, 15 nM hepsin): Incubation of pro-uPA with hepsin resulted in a time-dependent cleavage of the single-chain form into the two-chain form
k (first-order rate constant of pro-uPA activation): 0.0871 min⁻¹
kcat/Km of pro-uPA activation: 484000 M⁻¹ s⁻¹
